Experimental data published in US10358467B2, “Therapeutic targets for cancer progression” (The Regents of the University of California, priority 2015, dated 2019).

How the values were obtained:
Format in all cases: cell-based
[1] = tested on: Gi heterotrimer (Gαi1-YFP, CFP-Gβ1, Gγ2); assay: FRET between Gαi1-YFP and CFP-Gβ1 (Gi activation) in living HeLa cells
Procedure: (§1) Förster Resonance Energy Transfer (FRET) experiments were performed using the classical ECFP- and EYFP-tagged proteins as donor and acceptor FRET-probe pairs, respectively. Previously validated and published FZD7-CFP construct was a generous gift from Carl-Philip Heisenberg (Witzel et al, 2006). Previously validated Gαi3-YFP and Gαi1-YFP (internally tagged Gαi subunits) and CFP-Gβ1 were generous gifts from Moritz Bunemann (Bunemann et al, 2003; Gibson & Gilman, 2006). Interaction of FZD7-CFP and Gαi3-YFP proteins was studied in HEK293T cells using a Leica inverted laser scanning confocal microscope. […] Loss of FRET upon Gi activation and heterotrimer dissociation was measured between Gαi1-YFP and CFP-Gβ1 proteins co-expressed in living HeLa cells using Olympus FV1000 inverted confocal laser scanning microscope equipped with a 60× 1.49 N.A oil immersed objective designed to minimize chromatic aberration and enhance resolution for 405-605 nm imaging as described previously (Midde et al, 2015). […] FRET efficiency was calculated on a pixel by pixel basis from ratiometric images obtained in individual channels (donor, acceptor and FRET) through a RiFRET plugin in Image J software (Roszik et al, 2009). […]

[2] = tested on: cAMP levels in HeLa cells; assay: Measurement of cAMP by radioimmunoassay in HeLa cells
Procedure: HeLa cells were transfected with DAPLE-WT or DAPLE-FA, serum starved (0.2% FBS, 16 h) and incubated with isobutylmethylxanthine (IBMX, 200 μM, 20 min) followed by Wnt5a stimulation (100 ng/ml, 20 min) and Forskolin (10 uM, 10 min). To stop the reaction, cell medium was replaced with 150 μl of ice-cold TCA 7.5% (w/v). cAMP content in TCA extracts was determined by radioimmunoassay (MA) and normalized. To the amount of protein [(determined using a dyebinding protein assay (Bio-Rad)] per sample as previously described (Ostrom et al, 2001).

FZD7R-Gαi3 complexes = assay: FRET between FZD7R-CFP and Gαi3-YFP in HEK293 cells; conditions: plasma membrane, within 5 min; starved cells 0.04±0.01
Procedure: as §1

B1: Wnt5a: recombinant Wnt5a purified from CHO conditioned media (protein, UniProt P41221 62-380, looked up)
Protein Wnt-5a: IIGAQPLCSQLAGLSQGQKKLCHLYQDHMQYIGEGAKTGIKECQYQFRHRRWNCSTVDNTSVFGRVMQIGSRETAFTYAVSAAGVVNAMSRACREGELSTCGCSRAARPKDLPRDWLWGGCGDNIDYGYRFAKEFVDARERERIHAKGSYESARILMNLHNNEAGRRTVYNLADVACKCHGVSGSCSLKTCWLQLADFRKVGDALKEKYDSAAAMRLNSRGKLVQVNSRFNSPTTQDLVYIDPSPDYCVRNESTGSLGTQGRLCNKTSEGMDGCELMCCGRGYDQFKTVQTERCHCKFHWCCYVKCKKCTEIVDQFVCK
In the case of B1, the “drop in FRET after Wnt5a stimulation” value ([1]; DAPLE-depleted HeLa cells) is reported as “No significant drop in FRET”, the “FRET efficiency after Wnt5a stimulation” value ([1]; control HeLa cells, plasma membrane, within 5 min, 0.36±0.08 before stimulation) is reported as 0.17±0.06 and the “suppression of cAMP levels” value ([2]; HeLa cells expressing DAPLE-FA) is reported as “no such suppression”. For the same molecule, the “suppression of cAMP levels” value ([2]; HeLa cells expressing DAPLE-WT, Wnt5a 100 ng/ml 20 min) was about 50% and the “FRET efficiency after ligand stimulation” value (FZD7R-Gαi3 complexes) was 0.25±0.06.
